The values below are quoted from earlier work in article PMC3985698.

Usually Kd stands for the free concentration of one partner at which half of the binding sites on the other are occupied at equilibrium, for simple one-to-one binding.

In this data set the target is Bad (Homo sapiens) (UniProt Q92934). The settings on record: cited from earlier work.
Sequence of UniProt Q92934 (Q92934 whole entry): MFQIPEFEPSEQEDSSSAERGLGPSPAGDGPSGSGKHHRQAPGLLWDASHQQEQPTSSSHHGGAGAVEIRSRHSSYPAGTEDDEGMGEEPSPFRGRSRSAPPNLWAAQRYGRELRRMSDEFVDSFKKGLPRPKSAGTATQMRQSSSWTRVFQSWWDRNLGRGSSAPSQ

On to Bcl-xL (from UniProt Q07817), for which the Kd was 0.6 nM.
